Positions count from the first letter of the chain named. Read-outs that look alike come from different tables or passages of the source.
B1: 60-base ssDNA (ssDNA)
DNA: AAGCCAAGCTTCTAGAGTCAGCCCGTGATATTCATTACTTCTTATCCTAGGATCCCCGTT
B2: 60 bp dsDNA (dsDNA)
DNA 1: B1 DNA
DNA 2: AACGGGGATCCTAGGATAAGAAGTAATGAATATCACGGGCTGACTCTAGAAGCTTGGCTT

How the values were obtained:
Assay in all cases: fluorescence anisotropy
rGyr_hel K106Q [1] = molecular target: T1, rGyr_hel K106Q (Thermotoga maritima, UniProt O51934 59-541, K106Q)
T1 sequence: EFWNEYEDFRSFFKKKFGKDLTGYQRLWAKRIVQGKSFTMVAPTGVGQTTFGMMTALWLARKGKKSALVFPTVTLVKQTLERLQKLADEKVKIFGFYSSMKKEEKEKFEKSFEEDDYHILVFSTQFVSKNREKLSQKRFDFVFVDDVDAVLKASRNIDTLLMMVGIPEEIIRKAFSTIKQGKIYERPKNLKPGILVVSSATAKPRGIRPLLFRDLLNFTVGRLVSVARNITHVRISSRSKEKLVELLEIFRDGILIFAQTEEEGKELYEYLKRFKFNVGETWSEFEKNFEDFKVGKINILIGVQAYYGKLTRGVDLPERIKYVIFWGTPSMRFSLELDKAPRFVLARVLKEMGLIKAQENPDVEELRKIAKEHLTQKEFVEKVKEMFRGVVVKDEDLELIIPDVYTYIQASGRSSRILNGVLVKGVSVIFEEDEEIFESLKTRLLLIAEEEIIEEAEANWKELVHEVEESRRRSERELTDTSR

rGyr_hel K106Q [2] = molecular target: T1, rGyr_hel K106Q; remark: listed apart in the source
[3] = molecular target: T2, rGyr_hel (reverse gyrase helicase-like domain) (Thermotoga maritima, UniProt O51934 59-541)
T2 sequence: T1 sequence with Q48K

rGyr_fl K106Q/Y851F = molecular target: T3, rGyr_fl K106Q/Y851F (Thermotoga maritima, UniProt O51934 1-1104, K106Q;Y851F)
T3 sequence: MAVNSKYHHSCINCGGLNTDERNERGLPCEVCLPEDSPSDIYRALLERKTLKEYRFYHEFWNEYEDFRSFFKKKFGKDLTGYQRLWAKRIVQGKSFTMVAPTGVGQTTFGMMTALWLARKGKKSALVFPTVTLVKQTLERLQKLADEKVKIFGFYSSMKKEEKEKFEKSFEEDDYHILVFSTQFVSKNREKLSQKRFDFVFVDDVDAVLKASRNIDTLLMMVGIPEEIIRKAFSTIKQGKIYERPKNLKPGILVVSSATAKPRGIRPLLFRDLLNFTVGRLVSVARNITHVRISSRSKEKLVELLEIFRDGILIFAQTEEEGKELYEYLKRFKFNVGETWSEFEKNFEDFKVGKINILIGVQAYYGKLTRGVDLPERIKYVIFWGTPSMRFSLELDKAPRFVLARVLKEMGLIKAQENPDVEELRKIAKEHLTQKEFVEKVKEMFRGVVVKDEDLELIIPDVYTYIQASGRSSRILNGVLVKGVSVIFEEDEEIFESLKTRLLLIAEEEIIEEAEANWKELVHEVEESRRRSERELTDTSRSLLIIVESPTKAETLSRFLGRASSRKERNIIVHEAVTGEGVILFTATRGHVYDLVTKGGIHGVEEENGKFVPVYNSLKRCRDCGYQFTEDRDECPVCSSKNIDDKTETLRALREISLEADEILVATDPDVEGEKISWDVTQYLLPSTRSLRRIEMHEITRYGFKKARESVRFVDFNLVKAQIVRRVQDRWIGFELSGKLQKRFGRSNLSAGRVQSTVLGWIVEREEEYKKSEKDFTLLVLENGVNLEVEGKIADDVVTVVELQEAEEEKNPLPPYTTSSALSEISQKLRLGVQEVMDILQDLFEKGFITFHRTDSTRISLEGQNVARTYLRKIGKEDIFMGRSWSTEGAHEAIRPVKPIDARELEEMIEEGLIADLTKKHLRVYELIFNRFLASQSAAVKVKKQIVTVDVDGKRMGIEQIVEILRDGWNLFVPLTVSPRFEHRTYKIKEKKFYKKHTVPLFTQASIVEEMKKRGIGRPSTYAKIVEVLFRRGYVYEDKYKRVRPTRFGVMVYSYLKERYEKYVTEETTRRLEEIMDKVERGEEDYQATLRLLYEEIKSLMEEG

| Binder | Kd (rGyr_hel K106Q [1]) [nM] | Kd (rGyr_hel K106Q [2]) [nM] | Kd [3] [nM] | Kd (rGyr_fl K106Q/Y851F) [nM] |
| --- | --- | --- | --- | --- |
| B1 | 250 ± 30 | 180 ± 30 | 310 ± 40 |  |
| B2 | 2900 ± 600 |  |  | 710 ± 110 |

Reference: PMC2566858 (Nucleic Acids Research, 2008)
